Source: patent publication US20250223366A1 (BIOTHEUS, published 2025)
Values belong to the binder of their own block, whether it stands above or below them.

Key:
human c-MET protein = molecular target: T1, human c-MET protein (human, UniProt P08581 25-932); experiment: ForteBio (BLI) affinity assay, human c-Met protein
T1 construct: The construct is not described; also called cellular mesenchymal epithelial transition factor (c-Met) antigen
Experimental: (§1) After the antibodies were prepared, the ForteBio affinity assay was performed according to the reported method (Estep, P et al., Determination of antibody-antigen affinity and epitope binding based on high-throughput methods. MAbs, 2013.5(2): p. 270-8).

monkey c-MET protein = molecular target: T2, monkey c-MET protein (monkey, UniProt A0A2K5UM36 25-932); experiment: ForteBio (BLI) affinity assay, monkey c-Met protein
T2 construct: The construct is not described
Experimental: as §1

[1] = molecular target: T3, EGFR expressed on H292 cells (human, UniProt P00533 25-1210); experiment: flow cytometry on H292 cells; antibody titrated, then 100 nM Biotin-h.EGF as the blocked ligand, detected with Streptavidin-FITC
T3 construct: whole, on cells; H292 cells also express c-Met; also called epidermal growth factor receptor
Experimental: (§2) H292 cells, which were human non-small cell lung cancer cells purchased from Procell, were capable of expressing EGFR and c-Met receptors. H292 cells were expanded to a suitable density, digested and detached from the cell culture flask, resuspended to 1×10⁶ cells/ml, added to a 96-well flow plate, 100 μL per well, and centrifuged for later use. The antibody to be tested was subjected to 3-fold dilution with PBS, starting from 200 nM, and the diluted sample was added to the 96-well flow plate with cells, 100 μL/well, and incubated at 25° C. for 60 min. […] Streptavidin-FITC (purchased from Jackson) was diluted 100 times with PBS and added to the plate, 100 µL/well, incubated at 4° C. for 30 min, and washed twice with PBS. 100 μL/well of PBS was added to resuspend the cells, then the cells were detected on a CytoFlex (Beckman) flow cytometer, and the corresponding MFI was calculated.

[2] = molecular target: T3, EGFR expressed on H292 cells; experiment: flow cytometry on H292 cells, blocking of biotin-h.EGF (100 nM) binding to EGFR; EGFRxMET-136; blocking of EGF on H292 cells
Experimental: as §2

[3] = molecular target: T4, EGFR and c-Met receptors co-expressed on A375 or H292 cells (human, UniProt P00533 25-1210; P08581 25-1390); experiment: flow cytometry, binding to A375 cells (low EGFR and c-Met expression)
T4 construct: whole, on cells; Not a complex; also called EGFR and c-Met positive tumor cells
Source text: (§3) A375 cells were human malignant melanoma cells and purchased from Addexbio, which were capable of low expression of EGFR and c-Met receptors. H292 cells were human lung adenocarcinoma cells and purchased from procell, which were capable of high expression of EGFR and c-Met receptors. HCC827 cells were human non-small cell lung cancer cells and purchased from the Cell Bank of the Chinese Academy of Sciences, which were capable of high expression of EGFR and c-Met receptors. The expanded cells were adjusted to an appropriate cell density, and added to a 96-well flow plate. After centrifugation, the gradiently diluted samples to be tested were added and incubated at 4° C. for 1 hour. The cells were washed twice with PBS, then a fluorescent secondary antibody, diluted to an appropriate concentration, was added, incubated at 4° C. for 30 min, and washed twice with PBS. The cells were resuspended by PBS, and detected on a CytoFlex flow cytometer, and corresponding MFI was calculated.

[4] = molecular target: T4, EGFR and c-Met receptors co-expressed …; experiment: flow cytometry, binding to H292 cells (high EGFR and c-Met expression)
Source text: as §3

[5] = molecular target: T4, EGFR and c-Met receptors co-expressed …; experiment: flow cytometry, binding to A375 cells (low EGFR and c-Met expression); A375 cells
Source text: as §3

[6] = molecular target: T3, EGFR expressed on H292 cells; experiment: flow cytometry on H292 cells, blocking of biotin-h.EGF (100 nM) binding to EGFR; EGFRxMET-187; blocking of EGF on H292 cells
Experimental: as §2

T1 sequence (P08581 25-932 limits assumed): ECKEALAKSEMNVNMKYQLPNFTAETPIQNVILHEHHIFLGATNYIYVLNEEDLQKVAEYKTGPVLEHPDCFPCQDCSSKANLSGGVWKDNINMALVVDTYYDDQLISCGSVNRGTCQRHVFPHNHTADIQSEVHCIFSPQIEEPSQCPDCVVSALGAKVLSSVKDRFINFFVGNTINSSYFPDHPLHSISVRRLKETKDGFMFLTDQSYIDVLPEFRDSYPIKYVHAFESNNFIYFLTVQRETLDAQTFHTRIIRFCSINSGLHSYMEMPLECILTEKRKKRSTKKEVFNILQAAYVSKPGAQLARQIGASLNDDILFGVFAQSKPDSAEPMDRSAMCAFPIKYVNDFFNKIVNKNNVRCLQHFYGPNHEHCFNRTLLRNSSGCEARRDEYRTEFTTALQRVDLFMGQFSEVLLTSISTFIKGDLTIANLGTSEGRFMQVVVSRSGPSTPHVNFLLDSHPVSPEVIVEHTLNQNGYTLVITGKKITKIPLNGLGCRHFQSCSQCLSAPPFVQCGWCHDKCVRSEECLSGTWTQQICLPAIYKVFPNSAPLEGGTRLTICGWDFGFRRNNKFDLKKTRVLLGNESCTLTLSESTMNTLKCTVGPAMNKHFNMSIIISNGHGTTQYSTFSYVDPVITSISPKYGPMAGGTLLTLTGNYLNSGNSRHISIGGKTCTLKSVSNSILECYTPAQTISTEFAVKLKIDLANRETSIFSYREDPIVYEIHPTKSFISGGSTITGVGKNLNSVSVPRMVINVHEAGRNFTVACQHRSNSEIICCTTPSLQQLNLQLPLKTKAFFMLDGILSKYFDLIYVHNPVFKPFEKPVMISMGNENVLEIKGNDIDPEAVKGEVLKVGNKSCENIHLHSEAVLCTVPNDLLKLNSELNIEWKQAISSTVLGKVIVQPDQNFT
T2 sequence (A0A2K5UM36 entry or part of it limits assumed): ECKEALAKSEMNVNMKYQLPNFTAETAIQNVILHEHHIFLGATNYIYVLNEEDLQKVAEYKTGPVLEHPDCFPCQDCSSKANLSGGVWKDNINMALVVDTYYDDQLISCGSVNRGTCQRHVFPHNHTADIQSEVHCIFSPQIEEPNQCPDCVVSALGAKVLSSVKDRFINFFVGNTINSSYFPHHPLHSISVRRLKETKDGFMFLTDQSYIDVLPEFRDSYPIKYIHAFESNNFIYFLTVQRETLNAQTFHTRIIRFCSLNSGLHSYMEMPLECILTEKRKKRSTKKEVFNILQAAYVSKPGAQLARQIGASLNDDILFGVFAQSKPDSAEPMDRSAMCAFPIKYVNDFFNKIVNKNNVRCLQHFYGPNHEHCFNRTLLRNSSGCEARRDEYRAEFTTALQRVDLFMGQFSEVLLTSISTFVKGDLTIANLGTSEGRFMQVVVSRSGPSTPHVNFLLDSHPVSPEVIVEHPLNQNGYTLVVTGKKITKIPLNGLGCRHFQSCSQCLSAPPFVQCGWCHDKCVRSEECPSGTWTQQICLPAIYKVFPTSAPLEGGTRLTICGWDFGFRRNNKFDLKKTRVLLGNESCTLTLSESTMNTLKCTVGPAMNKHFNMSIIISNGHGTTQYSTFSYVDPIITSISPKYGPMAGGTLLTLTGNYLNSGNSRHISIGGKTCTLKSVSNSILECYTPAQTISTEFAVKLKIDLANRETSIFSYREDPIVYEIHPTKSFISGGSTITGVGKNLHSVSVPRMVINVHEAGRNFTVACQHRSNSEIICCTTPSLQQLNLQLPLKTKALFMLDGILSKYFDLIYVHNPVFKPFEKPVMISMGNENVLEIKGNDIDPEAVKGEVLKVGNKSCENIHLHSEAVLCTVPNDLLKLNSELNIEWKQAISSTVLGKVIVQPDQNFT

- Kd (human c-MET protein): 0.0293 nM
- koff (human c-MET protein): 6.71e-06 s⁻¹
- kon (human c-MET protein): 229000 M⁻¹ s⁻¹
- Kd (monkey c-MET protein): 1.16 nM
- koff (monkey c-MET protein): 0.000426 s⁻¹
- kon (monkey c-MET protein): 369000 M⁻¹ s⁻¹
B1: anti-c-MET antibody 136 (antibody, V domains shown)
VH: EVQLQESGPGLVKPSETLSLTCTVSGGSVTSVNYYWKWIRQPPGKGLEWIGYISYSGNTNYNPSLKSRVTISVDTSKNQFSLKLSSVTAADTAVYYCVRAPYYYMDVWSKGTTVTVSS
VL: DIVMTQSPSSVSASVGDRVTITCRASQGISSWLAWYQQKPGKAPKLLIYAVSSLQSGVPSRFSGSGSGTDFTLTISSLQPEDFATYFCQQANSFPLTFGGGTKVEIK
notes: Candidate from yeast display screening, as tested in the ForteBio assay

- Kd (human c-MET protein): 1.68 nM
- koff (human c-MET protein): 0.000369 s⁻¹
- kon (human c-MET protein): 220000 M⁻¹ s⁻¹
- Kd (monkey c-MET protein): 2.92 nM
- koff (monkey c-MET protein): 0.000947 s⁻¹
- kon (monkey c-MET protein): 324000 M⁻¹ s⁻¹
B2: anti-c-MET antibody 187 (antibody, V domains shown)
VH: ELQLQESGPGLVKPSETLSLTCTVSGGSISSSSYYWGWIRQSPGKGLEWIGSRYYSGNTYYNPSLKSRVTMSVDTSKNQFSLKLRSVTAADTAVYYCARQVYDYWRDWGQGALVTVSS
VL: DIVMTQSPSSVSASVGDRVTITCRASQGISSWLAWYQQKPGKAPNLLIYAASNLPSGVPSRFSGSGSGTVFTLTISSLQPEDFATYYCQQSNSFPLTFGGGTKVEIK
notes: as for B1

- IC50 [1]: 2.64 nM
B3: Amivantamab analog (bispecific antibody, human IgG1, kappa)
anti-EGFR heavy chain (EGFR-1 Fc): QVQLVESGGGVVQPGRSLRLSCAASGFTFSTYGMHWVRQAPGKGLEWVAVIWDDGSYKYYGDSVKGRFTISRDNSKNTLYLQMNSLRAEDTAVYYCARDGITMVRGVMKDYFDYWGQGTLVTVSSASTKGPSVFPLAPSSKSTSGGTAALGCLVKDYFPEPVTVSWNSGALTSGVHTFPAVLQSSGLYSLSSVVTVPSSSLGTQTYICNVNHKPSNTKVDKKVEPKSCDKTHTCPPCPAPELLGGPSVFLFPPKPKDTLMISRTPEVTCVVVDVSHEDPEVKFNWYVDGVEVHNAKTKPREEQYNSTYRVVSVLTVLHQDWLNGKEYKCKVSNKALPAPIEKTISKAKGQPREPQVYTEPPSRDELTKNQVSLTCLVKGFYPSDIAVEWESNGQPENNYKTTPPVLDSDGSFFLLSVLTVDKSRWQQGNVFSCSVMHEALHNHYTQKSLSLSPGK
anti-EGFR light chain: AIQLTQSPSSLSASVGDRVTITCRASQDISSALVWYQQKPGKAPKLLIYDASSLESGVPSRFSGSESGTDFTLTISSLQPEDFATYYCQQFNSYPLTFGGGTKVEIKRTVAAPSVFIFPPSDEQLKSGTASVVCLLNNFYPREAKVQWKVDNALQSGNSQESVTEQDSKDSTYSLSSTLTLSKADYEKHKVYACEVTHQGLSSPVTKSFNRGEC
anti-cMet control heavy chain (cMet-2 Fc): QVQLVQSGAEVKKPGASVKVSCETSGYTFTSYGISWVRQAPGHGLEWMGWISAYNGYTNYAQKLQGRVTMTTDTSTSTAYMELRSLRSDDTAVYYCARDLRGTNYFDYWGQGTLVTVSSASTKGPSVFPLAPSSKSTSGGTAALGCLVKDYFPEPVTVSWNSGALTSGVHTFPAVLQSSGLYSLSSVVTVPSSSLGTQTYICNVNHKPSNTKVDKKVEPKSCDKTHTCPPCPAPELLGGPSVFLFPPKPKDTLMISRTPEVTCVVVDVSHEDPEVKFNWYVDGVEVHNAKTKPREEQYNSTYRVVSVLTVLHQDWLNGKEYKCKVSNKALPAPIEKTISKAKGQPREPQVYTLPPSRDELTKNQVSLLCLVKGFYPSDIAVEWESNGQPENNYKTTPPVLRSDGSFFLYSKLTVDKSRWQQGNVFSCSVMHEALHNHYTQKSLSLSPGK
anti-cMet control light chain: DIQMTQSPSSVSASVGDRVTITCRASQGISNWLAWFQHKPGKAPKLLIYAASSLLSGVPSRFSGSGSGTDFTLTISSLQPEDFATYYCQQANSFPITFGQGTRLEIKRTVAAPSVFIFPPSDEQLKSGTASVVCLLNNFYPREAKVQWKVDNALQSGNSQESVTEQDSKDSTYSLSSTLTLSKADYEKHKVYACEVTHQGLSSPVTKSFNRGEC
notes: also called control antibody; control molecule Amivantamab

- IC50 [2]: 3.15 nM
B4: EGFRxMET-136 (bispecific antibody, human IgG1, kappa)
heavy 1: not shown
light 1: not shown
heavy 2: not shown
light 2: DIVMTQSPSSVSASVGDRVTITCRASQGISSWLAWYQQKPGKAPKLLIYAVSSLQSGVPSRFSGSGSGTDFTLTISSLQPEDFATYFCQQANSFPLTFGGGTKVEIKRTVAAPSVFIFPPSDEQLKSGTASVVCLLNNFYPREAKVQWKVDNALQSGNSQESVTEQDSKDSTYSLSSTLTLSKADYEKHKVYACEVTHQGLSSPVTKSFNRGEC
notes: 1+1 heterodimeric IgG1-type bispecific

- EC50 [3]: 1.05 nM
- EC50 [4]: 1.46 nM
B5: EGFRxMET-187 Afu (bispecific antibody, human IgG1, kappa)
heavy 1: not shown
light 1: not shown
heavy 2: not shown
light 2: DIVMTQSPSSVSASVGDRVTITCRASQGISSWLAWYQQKPGKAPNLLIYAASNLPSGVPSRFSGSGSGTVFTLTISSLQPEDFATYYCQQSNSFPLTFGGGTKVEIKRTVAAPSVFIFPPSDEQLKSGTASVVCLLNNFYPREAKVQWKVDNALQSGNSQESVTEQDSKDSTYSLSSTLTLSKADYEKHKVYACEVTHQGLSSPVTKSFNRGEC
modifications: afucosylated glycan

- EC50 [5]: 1.35 nM
B6: EGFRxMET-136 Afu (bispecific antibody, human IgG1, kappa)
heavy 1: not shown
light 1: DIVMTQSPSSVSASVGDRVTITCRASQGISSWLAWYQQKPGKAPKLLIYAVSSLQSGVPSRFSGSGSGTDFTLTISSLQPEDFATYFCQQANSFPLTFGGGTKVEIKRTVAAPSVFIFPPSDEQLKSGRASVVCLLNNFYPREAKVQWKVDNALQSGNSQESVTEQDSKDSTYSLSSRLQLSKADYEKHKVYACEVTHQGLSSPVTKSFNRGEC
heavy 2: not shown
light 2: DIQLTQSPSSLSASVGDRVTITCRASQDISSALVWYQQKPGKAPKLLIYDASSLESGVPSRFSGSESGTDFTLTISSLQPEDFATYYCQQFNSYPLTFGGGTKVEIKRTVAAPSVFIFPPSDEELKSGTASVQCLLNNFYPREAKVQWKVDNALQSGNSQESVTEQDSKDSTYSLSSELTLSKADYEKHKVYACEVTHQGLSSPVTKSFNRGEC
modifications: afucosylated glycan

- IC50 [6]: 2.9 nM
B7: EGFRxMET-187 (bispecific antibody, human IgG1, kappa)
heavy 1: not shown
light 1: not shown
heavy 2: not shown
light 2: DIVMTQSPSSVSASVGDRVTITCRASQGISSWLAWYQQKPGKAPNLLIYAASNLPSGVPSRFSGSGSGTVFTLTISSLQPEDFATYYCQQSNSFPLTFGGGTKVEIKRTVAAPSVFIFPPSDEQLKSGTASVVCLLNNFYPREAKVQWKVDNALQSGNSQESVTEQDSKDSTYSLSSTLTLSKADYEKHKVYACEVTHQGLSSPVTKSFNRGEC
notes: as for B4
